This assay concerns the target endogenous KIT of C57 mouse mast cells (UniProt P05532). In words: immunoprecipitation with anti-Flag antibody and immunoblot, densitometric analysis by ImageJ. The following applies: n = 4, p = 0.0013 (two-tailed unpaired Student's t-test), parent: est. 1.0, read off a plot.
UniProt P05532, sequence (P05532 25-979): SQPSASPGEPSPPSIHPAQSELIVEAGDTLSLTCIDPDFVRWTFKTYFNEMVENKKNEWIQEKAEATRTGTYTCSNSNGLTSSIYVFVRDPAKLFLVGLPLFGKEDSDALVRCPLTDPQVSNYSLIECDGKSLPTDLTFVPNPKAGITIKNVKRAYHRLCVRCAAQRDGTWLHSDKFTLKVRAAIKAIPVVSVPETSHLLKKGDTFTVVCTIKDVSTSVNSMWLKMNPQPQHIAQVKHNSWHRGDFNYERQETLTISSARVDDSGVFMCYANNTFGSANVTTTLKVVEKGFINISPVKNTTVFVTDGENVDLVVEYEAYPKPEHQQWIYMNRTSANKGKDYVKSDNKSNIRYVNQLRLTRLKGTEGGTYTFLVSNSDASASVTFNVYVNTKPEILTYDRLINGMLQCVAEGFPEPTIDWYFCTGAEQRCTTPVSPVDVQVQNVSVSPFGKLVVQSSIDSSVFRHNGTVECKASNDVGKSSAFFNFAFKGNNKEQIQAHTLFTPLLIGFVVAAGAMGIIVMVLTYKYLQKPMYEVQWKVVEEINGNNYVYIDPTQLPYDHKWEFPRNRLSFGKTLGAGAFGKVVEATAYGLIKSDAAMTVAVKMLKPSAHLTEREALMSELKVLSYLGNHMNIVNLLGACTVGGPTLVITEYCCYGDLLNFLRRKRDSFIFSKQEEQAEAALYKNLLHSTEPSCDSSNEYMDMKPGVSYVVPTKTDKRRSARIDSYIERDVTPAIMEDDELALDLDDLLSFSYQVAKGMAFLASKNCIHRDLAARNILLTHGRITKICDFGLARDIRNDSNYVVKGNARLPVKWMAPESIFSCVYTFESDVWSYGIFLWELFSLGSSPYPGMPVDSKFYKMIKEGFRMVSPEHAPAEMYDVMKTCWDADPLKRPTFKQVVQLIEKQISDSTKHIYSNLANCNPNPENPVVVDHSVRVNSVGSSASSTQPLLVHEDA

In the case of “wild-type MCEMP1 with carboxyl-terminal Flag, stably expressed in C57 mouse mast cells (from UniProt Q8IX19) YF”, the ratio to parent was found to be 0.45.
